Where two headings read alike, the source gives them in different places. Blank lines part the entries; values can stand above or below the substance they belong to.
Key:
[1] = target: E. coli DNA gyrase A2B2 complex (E. coli) (UniProt P0AES4)
[2] = target: [Alexa488]-QnrB1 (QnrB1-His labelled at the N-terminus with AlexaFluor 488); assay: fluorescence polarisation
[3] = target: [Alexa488]-QnrB1 (QnrB1-His labelled at the N-terminus with AlexaFluor 488); assay: fluorescence polarisation; remark: listed apart in the source
[4] = target: E. coli DNA gyrase A2B2 complex (E. coli) (UniProt P0AES4); remark: listed apart in the source
[5] = target: E. coli DNA gyrase A2B2 complex (E. coli) (UniProt P0AES4); remark: listed apart in the source
[6] = target: GyrB 43 kDa domain (GyrB43), N-terminal ATPase/transducer domain of E. coli GyrB (E. coli)
[7] = target: E. coli DNA gyrase subunit B, full-length, untagged (E. coli) (UniProt P0AES6)

- rescue of gyrase supercoiling from 3.3 μM albicidin by AlbG, EC50 [1]: 1.2 µM
Substance: AlbG with a thrombin-cleavable N-terminal hexahistidine tag (natural protein)

- Kd [2]: 1.78 µM
- Kd [3]: 0.08 µM
Substance: E. coli DNA gyrase A2B2 complex (from UniProt P0AES4 1-875; P0AES6 1-804)

- KdHi (high-affinity site of the two-site fit), with ADPNP [2]: 0.16 µM
- KdHi (high-affinity site of the two-site fit) [3]: 0.06 µM
Substance: E. coli DNA gyrase subunit B, full-length, untagged (from UniProt P0AES6 1-804) (natural protein)

- Kd [2]: 18 µM
- Kd [3]: 1.67 µM
Substance: GyrB 43 kDa domain (GyrB43), N-terminal ATPase/transducer domain of E. coli GyrB (domain or fragment)

- inhibition of gyrase supercoiling by QnrB1 without CFX, IC50 [4]: 11 µM
- ATP hydrolysis rate of 50 nM gyrase A2B2 in the absence of DNA, with 5 μM QnrB1 [5]: 3 fold
- ATPase rate of 4 μM GyrB43 with 5 μM QnrB1 against no QnrB1 [6]: 17 fold
- ATPase activity of the full-length GyrB subunit with QnrB1 (not shown) [7]: < 2 fold
Substance: QnrB1 with a C-terminal 6xHis tag (wild type, unlabelled) (natural protein)

Reference: publication doi:10.1101/2020.09.24.310243
